{"source": "paper PMC9440762", "proteins": {"B1": {"name": "C-phycocyanin αβ monomer (heterodimer of the α and β subunits) from Arthrospira platensis (protein)", "chain 1": "not shown", "chain 2": "MFDAFTKVVSQADTRGEMLSTAQIDALSQMVAESNKRLDAVNRITSNASTIVSNAARSLFAEQPQLIAPGGNAYTSRRMAACLRDMEIILRYVTYAVFAGDASVLEDRCLNGLRETYLALGTPGSSVAVGVGKMKEAALAIVNDPAGITPGDCSALASEIASYFDRACAAVS"}}, "target": "P72509", "test": "SEC; C-PC dialysed overnight against 8 M urea and 30 mM β-mercaptoethanol, then loaded on Superdex 200 Increase 5/150 in urea-free 75 mM phosphate buffer pH 7.9; partial reassociation during the run", "data": [{"protein": "B1", "values": [{"measurement": "yield of the state with the initial hydrodynamic characteristics after renaturation from 8 M urea", "result": 9.6, "unit": "%"}]}]}
